Data taken from article PMC5826802.

Substrate: NC(=O)c1ccc[n+]([C@@H]2O[C@H](COP(=O)([O-])OP(=O)(O)OC[C@H]3O[C@@H](n4cnc5c(N)ncnc54)[C@H](O)[C@@H]3O)[C@@H](O)[C@H]2O)c1
Experiment: Enzyme kinetics of PARP15-catalyzed automodification by MLISA
Type: biochemical, human
Settings: other: 500 nM PARP15, NAD+ 5-400 μM, Michaelis-Menten fit; pH 7.4

B1: PARP15 (Homo sapiens) (protein)
chain: NLPEHWTDMNHQLFCMVQLEPGQSEYNTIKDKFTRTCSSYAIEKIERIQNAFLWQSYQVKKRQMDIKNDHKNNERLLFHGTDADSVPYVNQHGFNRSCAGKNAVSYGKGTYFAVDASYSAKDTYSKPDSNGRKHMYVVRVLTGVFTKGRAGLVTPPPKNPHNPTDLFDSVTNNTRSPKLFVVFFDNQAYPEYLITFTA
Q: B1 was tested. Which Km did it give?
A: Its Km is 4.5 ± 2.9 µM.
